Experimental data: patent publication US12427210B2, “Compounds comprising a fibroblast activation protein ligand and use thereof” (priority 2019, dated 2025)

Key:
Details in all cases: remark: other sources report otherwise
[1] = target: T1, CCK1 (CCKA) (h) (human), P32238; assay: radioligand displacement, compound at 10 µM
T1 chain: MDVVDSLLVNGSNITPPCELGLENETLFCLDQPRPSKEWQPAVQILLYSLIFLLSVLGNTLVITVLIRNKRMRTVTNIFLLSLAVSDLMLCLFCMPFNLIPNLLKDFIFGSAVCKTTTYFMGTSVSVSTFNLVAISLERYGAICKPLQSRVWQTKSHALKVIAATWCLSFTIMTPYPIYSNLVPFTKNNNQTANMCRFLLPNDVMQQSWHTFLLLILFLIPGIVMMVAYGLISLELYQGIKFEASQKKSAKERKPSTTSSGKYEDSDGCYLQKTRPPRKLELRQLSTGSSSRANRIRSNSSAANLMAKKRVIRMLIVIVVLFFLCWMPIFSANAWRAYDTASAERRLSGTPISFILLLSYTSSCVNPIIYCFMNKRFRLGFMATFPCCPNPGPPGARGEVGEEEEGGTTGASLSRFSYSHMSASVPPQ

[2] = target: H2 (h) (human), P25021; assay: radioligand displacement, compound at 10 µM
Chain of H2 (h) (human), P25021 (P25021 whole entry): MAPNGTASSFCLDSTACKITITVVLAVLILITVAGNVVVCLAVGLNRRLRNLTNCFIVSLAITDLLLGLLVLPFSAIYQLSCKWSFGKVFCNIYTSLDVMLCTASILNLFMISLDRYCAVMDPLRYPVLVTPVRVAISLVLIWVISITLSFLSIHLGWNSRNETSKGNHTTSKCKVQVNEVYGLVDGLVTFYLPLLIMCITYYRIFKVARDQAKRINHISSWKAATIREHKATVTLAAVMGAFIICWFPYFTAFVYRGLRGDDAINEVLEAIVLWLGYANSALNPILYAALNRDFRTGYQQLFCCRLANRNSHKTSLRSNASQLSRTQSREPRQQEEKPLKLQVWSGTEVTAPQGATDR

[3] = target: T2, M1 (h) (human), P11229; assay: radioligand displacement, compound at 10 µM
T2 chain: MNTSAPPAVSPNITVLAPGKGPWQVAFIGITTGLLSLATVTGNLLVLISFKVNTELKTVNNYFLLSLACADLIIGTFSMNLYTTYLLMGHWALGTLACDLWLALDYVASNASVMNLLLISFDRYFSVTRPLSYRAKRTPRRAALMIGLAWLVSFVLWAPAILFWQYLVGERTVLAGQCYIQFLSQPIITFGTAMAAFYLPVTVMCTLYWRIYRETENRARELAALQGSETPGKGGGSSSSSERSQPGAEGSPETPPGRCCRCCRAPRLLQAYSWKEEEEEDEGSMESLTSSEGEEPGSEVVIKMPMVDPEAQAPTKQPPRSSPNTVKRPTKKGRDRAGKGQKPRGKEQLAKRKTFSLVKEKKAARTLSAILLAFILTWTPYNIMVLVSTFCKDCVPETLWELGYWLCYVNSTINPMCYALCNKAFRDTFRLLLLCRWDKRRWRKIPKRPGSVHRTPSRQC

[4] = target: T3, 5-HT3 (h) (human), P46098; assay: radioligand displacement, compound at 10 µM
T3 chain: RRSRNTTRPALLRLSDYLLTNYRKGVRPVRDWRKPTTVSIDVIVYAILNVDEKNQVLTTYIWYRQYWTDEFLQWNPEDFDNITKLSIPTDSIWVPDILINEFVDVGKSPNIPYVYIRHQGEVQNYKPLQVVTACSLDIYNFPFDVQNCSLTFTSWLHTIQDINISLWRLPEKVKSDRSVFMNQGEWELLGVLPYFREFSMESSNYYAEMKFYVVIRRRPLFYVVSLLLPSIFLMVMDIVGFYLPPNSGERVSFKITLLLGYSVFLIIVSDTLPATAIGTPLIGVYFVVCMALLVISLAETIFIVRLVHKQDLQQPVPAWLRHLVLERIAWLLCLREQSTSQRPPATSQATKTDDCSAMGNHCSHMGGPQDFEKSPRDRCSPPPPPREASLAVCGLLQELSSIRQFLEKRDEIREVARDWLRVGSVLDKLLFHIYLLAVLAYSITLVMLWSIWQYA

[5] = target: T4, Potassium Channel hERG (human) (human), Q12809; assay: displacement of [3H] Dofetilide, compound at 10 µM
T4 chain: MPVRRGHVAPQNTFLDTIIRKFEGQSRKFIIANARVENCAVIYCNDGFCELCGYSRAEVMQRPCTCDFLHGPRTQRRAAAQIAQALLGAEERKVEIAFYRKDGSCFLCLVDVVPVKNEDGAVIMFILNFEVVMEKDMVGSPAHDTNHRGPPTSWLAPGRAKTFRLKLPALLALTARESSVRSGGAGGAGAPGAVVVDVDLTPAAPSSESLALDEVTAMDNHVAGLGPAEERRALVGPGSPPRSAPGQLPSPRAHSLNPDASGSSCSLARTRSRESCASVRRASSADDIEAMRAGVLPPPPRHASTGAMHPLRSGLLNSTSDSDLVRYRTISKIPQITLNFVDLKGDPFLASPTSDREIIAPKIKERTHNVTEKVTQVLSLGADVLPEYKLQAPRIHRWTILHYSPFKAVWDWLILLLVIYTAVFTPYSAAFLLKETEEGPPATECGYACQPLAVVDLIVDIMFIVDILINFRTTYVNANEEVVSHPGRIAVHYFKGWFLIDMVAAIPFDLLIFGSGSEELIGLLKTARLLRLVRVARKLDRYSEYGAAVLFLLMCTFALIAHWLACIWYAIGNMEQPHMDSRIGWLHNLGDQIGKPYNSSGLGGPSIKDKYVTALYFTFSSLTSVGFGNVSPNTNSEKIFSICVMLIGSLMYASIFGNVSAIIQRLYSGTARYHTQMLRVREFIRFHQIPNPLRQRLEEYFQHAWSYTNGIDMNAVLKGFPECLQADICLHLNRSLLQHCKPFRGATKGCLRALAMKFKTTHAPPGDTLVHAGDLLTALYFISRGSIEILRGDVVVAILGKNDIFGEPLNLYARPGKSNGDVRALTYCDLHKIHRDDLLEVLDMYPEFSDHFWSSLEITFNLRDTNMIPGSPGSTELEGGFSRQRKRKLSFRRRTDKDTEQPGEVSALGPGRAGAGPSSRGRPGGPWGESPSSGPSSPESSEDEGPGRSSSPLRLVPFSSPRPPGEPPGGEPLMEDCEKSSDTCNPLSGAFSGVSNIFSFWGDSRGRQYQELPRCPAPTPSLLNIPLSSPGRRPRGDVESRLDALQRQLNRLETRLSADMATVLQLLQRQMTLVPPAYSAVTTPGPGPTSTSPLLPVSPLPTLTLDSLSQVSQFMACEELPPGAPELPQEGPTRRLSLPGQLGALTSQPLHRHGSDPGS

B1: Hex-[Cys(tMeBn(DOTA-AET))-Pro-Pro-Thr-Gln-Phe-Cys]-OH (3BP-3554) (peptide)
peptide: CPPTQFC
modifications: here or on the partner: N-terminal hexanoyl (Hex); Cys1 and Cys7 cyclised through tMeBn carrying DOTA-AET; free C-terminal acid (-OH)
- % Inhibition of Specific Binding [1]: 16%
- % Inhibition of Specific Binding [2]: -16%
- % Inhibition of Specific Binding [3]: 8%
- % Inhibition of Specific Binding [4]: 4%
- % Inhibition of Specific Binding [5]: 6%

B2: Hex-[Cys(tMeBn(DOTA-PP))-Pro-Pro-Thr-Gln-Phe-Cys]-Asp-NH2 (3BP-3407) (peptide)
peptide: CPPTQFCD
modifications: here or on the partner: N-terminal hexanoyl (Hex); Cys1 and Cys7 cyclised through tMeBn carrying DOTA-PP; C-terminal amide
- % Inhibition of Specific Binding [1]: 24%
- % Inhibition of Specific Binding [2]: -5%
- % Inhibition of Specific Binding [3]: 6%
- % Inhibition of Specific Binding [4]: 2%
- % Inhibition of Specific Binding [5]: 2%
